In test [1] the target is T1, Fluorescence-labeled PSMA protein (biotin-labelled purified PSMA protein with Alexa Fluor 647 Streptavidin) (human, UniProt Q04609 44-750, biotin label (EZ link Sulfo-NHS-Biotin), incubated with Alexa Fluor 647 Streptavidin).
T1 construct: This is the purified PSMA protein of m9 after labelling; also called fluorescence labeled recombinant PSMA protein; home-made fluorescent probe
Description: flow cytometry of CAR T cells with fluorescence labeled recombinant PSMA protein as probe. The text has this:
(A3). In vitro cytotoxicity of PSMA-CAR T cells. Human peripheral blood mononuclear cells (PBMC) were isolated from leukopak following a SOP published by Hanc (HIV/ADIS Network Coordination). T cells including CD4+ and CD8+ T cells were isolated from PBMC with human T cell isolation kit (Miltenyi Biotec). T cells were activated by Dvnabeads human T-Activator CD3/CD28 (ThermoFisher) for 24 hrs, then transduced with lentiviruses expressing PSMA-CARs. Transduced cells were expanded for 8 to 21 days in culture. Flow cytometry was performed to determine the percentage of T cells that express functional CAR. To prepare home-made fluorescent probe, we labeled purified PSMA protein with biotin using EZ link Sulfo-NHS-Biotin (ThermoFisher), then incubated with Alexa Fluor® 647 Streptavidin (BioLegend) to obtain the probe.
For IFNγ induction (FIGS. 14C, 14D)), 4LH-CAR, 7LH-CAR, 5LH-CAR appeared to be the strongest. […] We also tested the in vitro killing on PSMA-positive VCaP cells, PSMA-negative wild type PC3 cells, and PSMA-positive PC3-PSMA stable cells. As anticipated, the PSMA-CAR T cell cytotoxicity IFNγ induction were strictly PSMA-dependent. Moreover, using fluorescence labeled recombinant PSMA protein as probe, flow cytometry analysis was performed on non-transduced and 11 PSMA-CAR T cells.

Test [2] deals with T2, prostate-specific membrane antigen (PSMA) on PSMA-positive prostate cancer cells (LNCaP, VCaP) (human, UniProt Q04609 1-750).
T2 construct: Endogenous PSMA on LNCaP and VCaP cells; also called FOLH1; PSMA antigen on cancer cell surface
T2 sequence (Q04609 whole entry): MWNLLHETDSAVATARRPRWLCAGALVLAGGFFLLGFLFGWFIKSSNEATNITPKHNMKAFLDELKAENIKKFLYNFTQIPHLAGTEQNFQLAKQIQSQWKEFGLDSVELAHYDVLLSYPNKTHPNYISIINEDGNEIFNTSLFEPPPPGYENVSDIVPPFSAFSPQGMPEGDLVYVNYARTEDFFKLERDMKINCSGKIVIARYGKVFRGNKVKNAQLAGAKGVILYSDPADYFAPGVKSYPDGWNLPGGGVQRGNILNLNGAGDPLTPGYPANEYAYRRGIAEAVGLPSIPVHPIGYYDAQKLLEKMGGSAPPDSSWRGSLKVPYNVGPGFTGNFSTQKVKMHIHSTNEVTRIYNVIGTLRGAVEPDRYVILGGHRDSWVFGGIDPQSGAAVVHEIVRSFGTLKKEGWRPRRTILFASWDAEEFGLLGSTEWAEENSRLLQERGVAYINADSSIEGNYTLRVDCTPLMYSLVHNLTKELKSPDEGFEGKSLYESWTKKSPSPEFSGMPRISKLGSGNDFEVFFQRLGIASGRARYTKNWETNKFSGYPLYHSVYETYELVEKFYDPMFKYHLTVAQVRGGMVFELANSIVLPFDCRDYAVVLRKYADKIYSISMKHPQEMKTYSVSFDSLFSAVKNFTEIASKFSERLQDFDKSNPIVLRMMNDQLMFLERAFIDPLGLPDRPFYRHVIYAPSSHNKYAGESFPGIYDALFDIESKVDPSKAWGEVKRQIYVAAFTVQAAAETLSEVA
Description: flow cytometry on LNCaP cells.

Test [3] has as its target T2, prostate-specific membrane antigen …. Description: flow cytometry on mixed PC3 and LNCaP cells, 20 µg antibody, FITC anti-mouse IgG. The procedure: Next, the cells were incubated with FITC anti-mouse IgG secondary antibody (Biolegend, cat #406001), followed by flow cytometric analysis.

Where a chain is given by its changes, count along the chain named.

T1 sequence (Q04609 44-750): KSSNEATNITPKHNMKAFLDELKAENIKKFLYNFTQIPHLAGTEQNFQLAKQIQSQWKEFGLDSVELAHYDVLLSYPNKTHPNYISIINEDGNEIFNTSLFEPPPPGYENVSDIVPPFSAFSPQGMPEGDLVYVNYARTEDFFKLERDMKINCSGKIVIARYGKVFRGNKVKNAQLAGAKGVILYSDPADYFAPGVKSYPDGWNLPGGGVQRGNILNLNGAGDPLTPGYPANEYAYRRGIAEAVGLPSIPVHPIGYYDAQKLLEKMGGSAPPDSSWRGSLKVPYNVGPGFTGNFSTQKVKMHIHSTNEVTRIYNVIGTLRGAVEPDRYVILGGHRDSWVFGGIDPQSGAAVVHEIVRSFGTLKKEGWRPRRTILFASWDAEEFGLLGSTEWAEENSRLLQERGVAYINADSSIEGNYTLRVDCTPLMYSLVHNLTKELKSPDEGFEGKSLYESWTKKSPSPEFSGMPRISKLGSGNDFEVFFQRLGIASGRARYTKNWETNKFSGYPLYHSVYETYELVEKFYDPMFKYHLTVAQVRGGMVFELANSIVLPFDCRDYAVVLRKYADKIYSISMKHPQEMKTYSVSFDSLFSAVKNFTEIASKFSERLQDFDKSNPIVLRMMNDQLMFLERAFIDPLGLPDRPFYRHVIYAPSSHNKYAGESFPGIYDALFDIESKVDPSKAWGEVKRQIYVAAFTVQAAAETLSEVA

B1: PSMA(7LH)-CAR, derived from antibody #1352 (VL-linker-VH) (other)
chain: DIVMTQSHKFMSTSVGDRVNITCKASQDVGTAVAWYQQKPGQSPKFLIYWASTRHTGVPDRFTGSGSGTDFTLTISNVQSEDLADYFCHQYTSYPFTFGSGTKLEMKRGGGGSGGGGSGGGGSVKLQQSGPELEKPGASVKISCKASGYSFTGYNVNWVKQSNGKSLEWIGNIDPYHGGTTYNQKFEAKATLTVDKSSSTAYMQLKSLTSEDSAVYYCARSSRFDYWGQGTTLTVSSTTTPAPRPPTPAPTIASQPLSLRPEACRPAAGGAVHTRGLDFACDIYIWAPLAGTCGVLLLSLVITLYCKRGRKKLLYIFKQPFMRPVQTTQEEDGCSCRFPEEEEGGCELRVKFSRSADAPAYKQGQNQLYNELNLGRREEYDVLDKRRGRDPEMGGKPRRKNPQEGLYNELQKDKMAEAYSEIGMKGERRRGKGHDGLYQGLSTATKDTYDALHMQALPPR
notes: Chimeric antigen receptor on transduced human T cells
As for B1, the “percentage of CAR T cells positive for PSMA binding” value (“percentage of CAR T cells positive” for short) in test [1] came out at 35.5%.

B2: PSMA(8LH)-CAR, derived from antibody #1207 (VL-linker-VH) (other)
chain: IVLTQSPAIMSASPGVKVTMTCRASSSVDSSYLHWYQQKSGASPQVWIYSTSNLASGVPARFSGSGSGTSYSLTISSVEAEDAATYYCQQYSGYPLTFGGGTKLEIKRGGGGSGGGGSGGGGSVKLQQSGPGLVKPSQSLSLTCAVTGYSITSDYAWNWIRKFPGNKLEWMGYISYSGRTTYNPSLESRISITRDTSKNQFFLQLNSVTTEDTATYYCARCYYGSSSRWYGMDYWGRGTSVAVSSTTTPAPRPPTPAPTIASQPLSLRPEACRPAAGGAVHTRGLDFACDIYIWAPLAGTCGVLLLSLVITLYCKRGRKKLLYIFKQPFMRPVQTTQEEDGCSCRFPEEEEGGCELRVKFSRSADAPAYKQGQNQLYNELNLGRREEYDVLDKRRGRDPEMGGKPRRKNPQEGLYNELQKDKMAEAYSEIGMKGERRRGKGHDGLYQGLSTATKDTYDALHMQALPPR
notes: as for B1
For the molecule B2, the “percentage of CAR T cells positive” value in test [1] was determined as 16%.

B3: PSMA(446)-CAR (CAR PMC 446, clone 1366, VH-linker-VL) (other)
chain: VKLQESGPGLVAPSQSLSITCTVSGFSLTDYGVSWIRQPPGKGLEWLGVIWSDGNTYYNSPLKSRLSINKDNSKSQVFLKMNSLQTDDSAMYYCARHKVYTMDYWGQGTSVTVSSGGGGSGGGGSGGGGSTVLTQSPAIMSASPGEKVTMTCRASSSVSSSYLHWYQQKSSASPKLWIYRTSNLASGVPARFSGSGSGTSYSLTISSLEAEDAATYYCQQYSGYPLTFGAGTKLELKRTTTPAPRPPTPAPTIASQPLSLRPEACRPAAGGAVHTRGLDFACDIYIWAPLAGTCGVLLLSLVITLYCKRGRKKLLYIFKQPFMRPVQTTQEEDGCSCRFPEEEEGGCELRVKFSRSADAPAYKQGQNQLYNELNLGRREEYDVLDKRRGRDPEMGGKPRRKNPQEGLYNELQKDKMAEAYSEIGMKGERRRGKGHDGLYQGLSTATKDTYDALHMQALPPR
notes: Chimeric antigen receptor on transduced human T cells; also called PMC446 CAR
Consider B3, for which the “percentage of CAR T cells positive” value in test [1] was determined as 19.6%.

B4: anti-PSMA mouse monoclonal antibody #219 (antibody, V domains shown)
VH: VQLQQSGPELEKPGASVKMSCKASGYSFTGYNVNWVRQNNGKSLEWIGNIDPLHGGTTYNQKFKAKATLTVDRSSSTAYLQLKNLTSEDSAVYYCARSSRFDYWGQGTTLTVSS
VL: DIVMTQSHKFMSTSVGDRVNITCKASQDVGTAVAWYQQKPGQSPKLLIYWASTRHTGVPDRFTGSGSGTDFTLTISNVQSEDLADYFCHQFTSYPFTFGSGTSLEMKR
notes: Full-length mouse IgG from a hybridoma
Consider B4, for which the binding result in test [2] is “binds”.

B5: anti-PSMA mouse monoclonal antibody #1352 (antibody, IgG2b, V domains shown)
VH: B4 VH with Q2K, M19I, R37K, N39S, L53Y, K64E, R73K, L80M, N84S
VL: B4 VL with L46F, F91Y, S103K
For B5, the binding result in test [3] was “binds”.

B6: PSMA(6LH)-CAR, derived from antibody #1366 (VL-linker-VH) (other)
chain: TVLTQSPAIMSASPGEKVTMTCRASSSVSSSYLHWYQQKSSASPKLWIYRTSNLASGVPARFSGSGSGTSYSLTISSLEAEDAATYYCQQYSGYPLTFGAGTKLELKRGGGGSGGGGSGGGGSVKLQESGPGLVAPSQSLSITCTVSGFSLTDYGVSWIRQPPGKGLEWLGVIWSDGNTYYNSPLKSRLSINKDNSKSQVFLKMNSLQTDDSAMYYCARHKVYTMDYWGQGTSVTVSSTTTPAPRPPTPAPTIASQPLSLRPEACRPAAGGAVHTRGLDFACDIYIWAPLAGTCGVLLLSLVITLYCKRGRKKLLYIFKQPFMRPVQTTQEEDGCSCRFPEEEEGGCELRVKFSRSADAPAYKQGQNQLYNELNLGRREEYDVLDKRRGRDPEMGGKPRRKNPQEGLYNELQKDKMAEAYSEIGMKGERRRGKGHDGLYQGLSTATKDTYDALHMQALPPR
notes: as for B1
In the case of B6, the “percentage of CAR T cells positive” value in test [1] came to 17.8%.

B7: PSMA(448)-CAR (CAR PMC 448, clone 1207, VH-linker-VL) (other)
chain: VKLQQSGPGLVKPSQSLSLTCAVTGYSITSDYAWNWIRKFPGNKLEWMGYISYSGRTTYNPSLESRISITRDTSKNQFFLQLNSVTTEDTATYYCARCYYGSSSRWYGMDYWGRGTSVAVSSGGGGSGGGGSGGGGSIVLTQSPAIMSASPGVKVTMTCRASSSVDSSYLHWYQQKSGASPQVWIYSTSNLASGVPARFSGSGSGTSYSLTISSVEAEDAATYYCQQYSGYPLTFGGGTKLEIKRTTTPAPRPPTPAPTIASQPLSLRPEACRPAAGGAVHTRGLDFACDIYIWAPLAGTCGVLLLSLVITLYCKRGRKKLLYIFKQPFMRPVQTTQEEDGCSCRFPEEEEGGCELRVKFSRSADAPAYKQGQNQLYNELNLGRREEYDVLDKRRGRDPEMGGKPRRKNPQEGLYNELQKDKMAEAYSEIGMKGERRRGKGHDGLYQGLSTATKDTYDALHMQALPPR
notes: Chimeric antigen receptor on transduced human T cells; also called PMC448 CAR
Consider B7, for which, in test [1], the “percentage of CAR T cells positive” value came to 2.23%.

B8: PSMA(444)-CAR (CAR PMC 444, clone 219, VH-linker-VL) (other)
chain: VQLQQSGPELEKPGASVKMSCKASGYSFTGYNVNWVRQNNGKSLEWIGNIDPLHGGTTYNQKFKAKATLTVDRSSSTAYLQLKNLTSEDSAVYYCARSSRFDYWGQGTTLTVSSGGGGSGGGGSGGGGSDIVMTQSHKFMSTSVGDRVNITCKASQDVGTAVAWYQQKPGQSPKLLIYWASTRHTGVPDRFTGSGSGTDFTLTISNVQSEDLADYFCHQFTSYPFTFGSGTSLEMKRTTTPAPRPPTPAPTIASQPLSLRPEACRPAAGGAVHTRGLDFACDIYIWAPLAGTCGVLLLSLVITLYCKRGRKKLLYIFKQPFMRPVQTTQEEDGCSCRFPEEEEGGCELRVKFSRSADAPAYKQGQNQLYNELNLGRREEYDVLDKRRGRDPEMGGKPRRKNPQEGLYNELQKDKMAEAYSEIGMKGERRRGKGHDGLYQGLSTATKDTYDALHMQALPPR
notes: Chimeric antigen receptor (scFv-CD8a TM-4-1BB-CD3zeta) on transduced human T cells; also called PMC444 CAR
B8: the “percentage of CAR T cells positive” value in test [1] was determined as 47.1%.

B9: PSMA(447)-CAR (CAR PMC 447, clone 1352, VH-linker-VL) (other)
chain: VKLQQSGPELEKPGASVKISCKASGYSFTGYNVNWVKQSNGKSLEWIGNIDPYHGGTTYNQKFEAKATLTVDKSSSTAYMQLKSLTSEDSAVYYCARSSRFDYWGQGTTLTVSSGGGGSGGGGSGGGGSDIVMTQSHKFMSTSVGDRVNITCKASQDVGTAVAWYQQKPGQSPKFLIYWASTRHTGVPDRFTGSGSGTDFTLTISNVQSEDLADYFCHQYTSYPFTFGSGTKLEMKRTTTPAPRPPTPAPTIASQPLSLRPEACRPAAGGAVHTRGLDFACDIYIWAPLAGTCGVLLLSLVITLYCKRGRKKLLYIFKQPFMRPVQTTQEEDGCSCRFPEEEEGGCELRVKFSRSADAPAYKQGQNQLYNELNLGRREEYDVLDKRRGRDPEMGGKPRRKNPQEGLYNELQKDKMAEAYSEIGMKGERRRGKGHDGLYQGLSTATKDTYDALHMQALPPR
notes: Chimeric antigen receptor on transduced human T cells; also called PMC447 CAR
Turning to B9, in test [1], the “percentage of CAR T cells positive” value amounted to 3.08%.

B10: anti-PSMA mouse monoclonal antibody #1377 (antibody, V domains shown)
VH: VQLQQPGAALVRPGASVRLSCKASGYSFTYYWMNWVMQRPGQGLEWIGMIHPSDSETRLSQKFRDKATLTVDKSSSTVYMQLNSPTSDDSAVYYCARDGNFPYYALDYWGQGTSVTVSS
VL: DVVLTQAPLSLPVSLGDQASISCRSSQSLEYSNGNTYLHWYLQKPGQSPELLIYTVSNRFSGVPDRFSGSGSGTDFTLKIHRVEAEDLGVYFCSQSTHVPTFGGGTKLEIKR
notes: as for B4
For the molecule B10, in test [2], the binding result is listed as “binds”.

B11: anti-PSMA mouse monoclonal antibody #1207 (antibody, V domains shown)
VH: VKLQQSGPGLVKPSQSLSLTCAVTGYSITSDYAWNWIRKFPGNKLEWMGYISYSGRTTYNPSLESRISITRDTSKNQFFLQLNSVTTEDTATYYCARCYYGSSSRWYGMDYWGRGTSVAVSS
VL: IVLTQSPAIMSASPGVKVTMTCRASSSVDSSYLHWYQQKSGASPQVWIYSTSNLASGVPARFSGSGSGTSYSLTISSVEAEDAATYYCQQYSGYPLTFGGGTKLEIKR
notes: as for B4
For B11, the binding result in test [2] is recorded as “binds”.

B12: anti-PSMA mouse monoclonal antibody #1366 (antibody, V domains shown)
VH: VKLQESGPGLVAPSQSLSITCTVSGFSLTDYGVSWIRQPPGKGLEWLGVIWSDGNTYYNSPLKSRLSINKDNSKSQVFLKMNSLQTDDSAMYYCARHKVYTMDYWGQGTSVTVSS
VL: B11 VL with I1T, V16E, D29S, G41S, Q45K, V46L, S50R, V78L, G100A, I106L
notes: as for B4
For B12, the binding result in test [2] is “binds”.
